According to US20150232507A1:

Assays:
Experiment in all cases: cell-based or functional assay
[1] = biological target: C-terminal domain of G1 cloned directly to Trx whose first amino acid is Tyr (E. coli)
[2] = biological target: C-terminal domain of G1 cloned directly to Trx whose first amino acid is Ile (E. coli)
[3] = biological target: C-terminal domain of G1 cloned directly to Trx whose first amino acid is Phe (E. coli)
[4] = biological target: C-terminal domain of G1 cloned directly to Trx whose first amino acid is Cys (E. coli)
[5] = biological target: C-terminal domain of G1 cloned directly to Trx whose first amino acid is Met (E. coli)
[6] = biological target: C-terminal domain of G1 cloned directly to Trx whose first amino acid is Arg (E. coli)
[7] = biological target: C-terminal domain of G1 cloned directly to Trx whose first amino acid is Asn (E. coli)
[8] = biological target: C-terminal domain of G1 cloned directly to Trx whose first amino acid is Pro (E. coli)
[9] = biological target: C-terminal domain of G1 cloned directly to Trx whose first amino acid is Asp (E. coli)
[10] = biological target: C-terminal domain of G1 cloned directly to Trx whose first amino acid is Ser (E. coli)
[11] = biological target: C-terminal domain of G1 cloned directly to Trx whose first amino acid is Glu (E. coli)
[12] = biological target: C-terminal domain of G1 cloned directly to Trx whose first amino acid is Gln (E. coli)
[13] = biological target: C-terminal domain of G1 cloned directly to Trx whose first amino acid is Ala (E. coli)
[14] = biological target: C-terminal domain of G1 cloned directly to Trx whose first amino acid is His (E. coli)
[15] = biological target: C-terminal domain of G1 cloned directly to Trx whose first amino acid is Trp (E. coli)
[16] = biological target: C-terminal domain of G1 cloned directly to Trx whose first amino acid is Thr (E. coli)
[17] = biological target: C-terminal domain of G1 cloned directly to Trx whose first amino acid is Lys (E. coli)
[18] = biological target: C-terminal domain of G1 cloned directly to Trx whose first amino acid is Leu (E. coli)
[19] = biological target: C-terminal domain of G1 cloned directly to Trx whose first amino acid is Gly (E. coli)
[20] = biological target: C-terminal domain of G1 cloned directly to Trx whose first amino acid is Val (E. coli)

B1: G1^N(C1A): StreptagII-gpD-linker[N-extein]-Gp41.1^N(C1A)-GGHHHHHH fusion protein (protein)
chain: MASWSHPQFEKASKETFTHYQPQGNSDPAHTATAPGGLSAKAPAMTPLMLDTSSRKLVAWDGTTDGAAVGILAVAADQTSTTLTFYKSGTFRYEDVLWPEAASDETKKRTAFAGTAISIVGSTRSGYALDLKTQVQTPQGMKEISNIQVGDLVLSNTGYNEVLNVFPKSKKKSYKITLEDGKEIICSEEHLFPTQTGEMNISGGLKEGMCLYVKEGGHHHHHH
With B1 the C-terminal Cleavage Yield (%) [1] was 91.3%, the C-terminal Cleavage k [1] was 0.00033 s⁻¹ and the C-terminal Cleavage t(½) [1] was 35 min. The C-terminal Cleavage Yield (%) [2] was 88.4%, the C-terminal Cleavage k [2] was 0.000173 s⁻¹ and the C-terminal Cleavage t(½) [2] was 66.7 min. For the same binder, the C-terminal Cleavage Yield (%) [3] was 72.6%, the C-terminal Cleavage k [3] was 0.000307 s⁻¹ and the C-terminal Cleavage t(½) [3] was 37.7 min. It also gave a C-terminal Cleavage Yield (%) [4] of 83.6%, a C-terminal Cleavage k [4] of 0.000683 s⁻¹ and a C-terminal Cleavage t(½) [4] of 16.9 min. It also gave a C-terminal Cleavage Yield (%) [5] of 85.6%, a C-terminal Cleavage k [5] of 0.00087 s⁻¹ and a C-terminal Cleavage t(½) [5] of 13.3 min. The C-terminal Cleavage Yield (%) [6] was 87.3%, the C-terminal Cleavage k [6] was 0.00051 s⁻¹ and the C-terminal Cleavage t(½) [6] was 22.6 min. For the same binder, the C-terminal Cleavage Yield (%) [7] was 71.2%, the C-terminal Cleavage k [7] was 0.000287 s⁻¹ and the C-terminal Cleavage t(½) [7] was 40.3 min. The C-terminal Cleavage Yield (%) [8] was 57.8%, the C-terminal Cleavage k [8] was 6e-05 s⁻¹ and the C-terminal Cleavage t(½) [8] was 193 min. For the same binder, the C-terminal Cleavage Yield (%) [9] was 68.6%, the C-terminal Cleavage k [9] was 0.000247 s⁻¹ and the C-terminal Cleavage t(½) [9] was 46.8 min. For the same binder, the C-terminal Cleavage Yield (%) [10] was 89.4%, the C-terminal Cleavage k [10] was 0.000483 s⁻¹ and the C-terminal Cleavage t(½) [10] was 23.9 min. For the same binder, the C-terminal Cleavage Yield (%) [11] was 86.2%, the C-terminal Cleavage k [11] was 0.000127 s⁻¹ and the C-terminal Cleavage t(½) [11] was 91.2 min. The C-terminal Cleavage Yield (%) [12] was 88.8%, the C-terminal Cleavage k [12] was 0.00047 s⁻¹ and the C-terminal Cleavage t(½) [12] was 24.6 min. The C-terminal Cleavage Yield (%) [13] was 75.8%, the C-terminal Cleavage k [13] was 0.000357 s⁻¹ and the C-terminal Cleavage t(½) [13] was 32.4 min. It also gave a C-terminal Cleavage Yield (%) [14] of 71.1%, a C-terminal Cleavage k [14] of 0.000447 s⁻¹ and a C-terminal Cleavage t(½) [14] of 25.9 min. It also gave a C-terminal Cleavage Yield (%) [15] of 94.1%, a C-terminal Cleavage k [15] of 0.00028 s⁻¹ and a C-terminal Cleavage t(½) [15] of 41.3 min. The C-terminal Cleavage Yield (%) [16] was 87.5%, the C-terminal Cleavage k [16] was 0.000573 s⁻¹ and the C-terminal Cleavage t(½) [16] was 20.1 min. It also gave a C-terminal Cleavage Yield (%) [17] of 86.7%, a C-terminal Cleavage k [17] of 0.00051 s⁻¹ and a C-terminal Cleavage t(½) [17] of 22.6 min. The C-terminal Cleavage Yield (%) [18] was 69.3%, the C-terminal Cleavage k [18] was 0.000273 s⁻¹ and the C-terminal Cleavage t(½) [18] was 42.3 min. For the same binder, the C-terminal Cleavage Yield (%) [19] was 75.2%, the C-terminal Cleavage k [19] was 0.000137 s⁻¹ and the C-terminal Cleavage t(½) [19] was 84.5 min. It also gave a C-terminal Cleavage Yield (%) [20] of 86.7%, a C-terminal Cleavage k [20] of 0.000273 s⁻¹ and a C-terminal Cleavage t(½) [20] of 42.3 min.
